Measured values: publication PMC5921574 (Molecular Biology of the Cell, 2018)

Target: actin filaments (F-actin) from rabbit skeletal muscle (rabbit, UniProt P68135 1-377)
Assay: co-sedimentation

B1: LEV-11A(E234K), recombinant (natural protein)
chain: MASDAIKKKMQAMKIEKDNALDRADAAEEKVRQITEKLERVEEELRDTQKKMTQTGDDLDKAQEDLSAATSKLEEKEKTVQEAEAEVASLNRRMTLLEEELERAEERLKIATEKLEEATHNVDESERVRKVMENRSLQDEERANTVEAQLKEAQLLAEEADRKYDEVARKLAMVEADLERAEERAEAGENKIVELEEELRVVGNNLKSLEVSEEKALQREDSYEEQIRTVSSRLKKAETRAEFAERSVQKLQKEVDRLEDELVHEKERYKTISEELDSTFQELSGY
fold decrease in affinity against wild-type LEV-11A: ~3 fold
